In patent US20250051406, “CELL TARGETING COMPOSITIONS AND METHODS” (The Trustees of Indiana University, published 2025):

Biological target: ZFP K-Ras G12D (six-finger zinc finger protein) (synthetic construct)
Experiment: dot blot, 400 ng gDNA of PANC-1 (heterozygous G12D), ZFP 10 ug/ml, TBS-T/milk, RT; much stronger than WT or G13D gDNA
Details: tags: N-terminal 3xFLAG, NLS; expressed in E. coli from pET-30a(+)
Method: Genomic DNA (gDNA) was extracted from cancer cells using QIAamp DNA Mini Kit (51104, Qiagen Sciences, Inc., Germantown, MD). Concentration of the gDNA was measured by Qubit dsDNA BR Assay kit (Q32853, Invitrogen™, Thermo Fisher Scientific Inc., Waltham, MA) and adjusted to the same contraction. 400 ng of each gDNA was spotted onto a nitrocellulose membrane (15356, Sigma-Aldrich, Burlington, MA) using narrow-mouth pipette tip. Membranes were allowed to dry and then blocked by soaking in 5% non-fat milk in tris-buffered saline tween (TBS-T) at room temperature (RT) for 1 hour. Blocked membranes were incubated with ZFP ([…]) dissolved in milk/TBS-T for 1 hour at RT. The membranes were washed three times with TBS-T and incubated with anti-FLAG@antibody conjugated with horseradish peroxidase (HRP) (86861S, Cell Signaling Technology, Inc., Danvers, MA). The membranes were then washed three times with TBS-T (15 min×1, 5 min×2) and once with TBS (5 min). The signals were developed with enhanced chemiluminescent (ECL) horseradish peroxidase (HRP) substrate (SuperSignal West Pico PLUS Chemiluminescent Substrate, Catalog #34580, Thermo Fisher Scientific) and captured using the ChemiDoc MP Imaging System (12003154, Bio-Rad Laboratories, Hercules, CA).
FIG. 4 depicts dot blot results showing that the ZFPs from Example 3 can distinguish DNA sequences with one or two point mutations in vitro. […]

Sequence of ZFP K-Ras G12D (six-finger zinc finger protein) (synthetic construct) (chain, as listed by the source G12D G12D): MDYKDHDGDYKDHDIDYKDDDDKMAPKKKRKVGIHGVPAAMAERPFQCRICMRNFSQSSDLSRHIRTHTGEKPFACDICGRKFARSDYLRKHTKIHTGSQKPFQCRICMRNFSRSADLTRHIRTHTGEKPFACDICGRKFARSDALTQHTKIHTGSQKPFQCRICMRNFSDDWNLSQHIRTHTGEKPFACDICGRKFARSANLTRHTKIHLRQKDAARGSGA

B1: KRAS G12D target site (codon 12 GAT) (dsDNA)
DNA 1: GAGCTGATGGCGTAGGCA
DNA 2: TGCCTACGCCATCAGCTC
binding result: binds
